Read-outs that look alike come from different tables or passages of the source.
B1: LpxA wild type (UDP-N-acetylglucosamine acyltransferase), purified (enzyme, E. coli, UniProt P0A722 1-262, looked up)
chain: MIDKSAFVHPTAIVEEGASIGANAHIGPFCIVGPHVEIGEGTVLKSHVVVNGHTKIGRDNEIYQFASIGEVNQDLKYAGEPTRVEIGDRNRIRESVTIHRGTVQGGGLTKVGSDNLLMINAHIAHDCTVGNRCILANNATLAGHVSVDDFAIIGGMTAVHQFCIIGAHVMVGGCSGVAQDVPPYVIAQGNHATPFGVNIEGLKRRGFSREAITAIRNAYKLIYRSGKTLDEVKPEIAELAETYPEVKAFTDFFARSTRGLIR

Legend:
[1] = target: ObgE (Obg of E. coli), wild type, N-terminally His6-tagged, purified (E. coli) (UniProt P42641); assay: MST
Sequence of ObgE (Obg of E. coli), wild type, N-terminally His6-tagged, purified (E. coli) (P42641 whole entry): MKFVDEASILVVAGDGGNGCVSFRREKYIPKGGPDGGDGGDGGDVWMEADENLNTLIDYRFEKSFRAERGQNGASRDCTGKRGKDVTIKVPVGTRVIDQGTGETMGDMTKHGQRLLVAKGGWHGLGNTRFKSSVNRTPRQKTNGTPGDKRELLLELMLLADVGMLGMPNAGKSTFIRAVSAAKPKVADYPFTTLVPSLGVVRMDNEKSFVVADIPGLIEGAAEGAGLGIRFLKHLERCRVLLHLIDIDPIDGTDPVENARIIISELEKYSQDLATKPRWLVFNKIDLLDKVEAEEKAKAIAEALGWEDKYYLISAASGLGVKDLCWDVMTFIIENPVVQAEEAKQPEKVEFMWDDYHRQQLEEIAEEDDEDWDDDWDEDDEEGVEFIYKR

[2] = target: ObgE (Obg of E. coli), wild type, N-terminally His6-tagged, purified (E. coli) (UniProt P42641); assay: MST; remark: listed apart in the source
[3] = target: ObgE (Obg of E. coli), wild type, N-terminally His6-tagged, purified (E. coli) (UniProt P42641); assay: MST; remark: listed apart in the source
SEC-MALS = target: the molecule itself; assay: SEC-MALS

| Molecule | Kd [1] [µM] | Kd [2] [µM] | Kd [3] [µM] | stoichiometry N (SEC-MALS) |
| --- | --- | --- | --- | --- |
| LpxA wild type (UDP-N-acetylglucosamine acyltransferase), purified (from UniProt P0A722 1-262) (enzyme) | 99 | 78 | 47 |  |
| B1 |  |  |  | 3 |

From article PMC11549432 (Nature Communications, 2024)
